This test addresses humanized EBV321. As to the kind of experiment: ELISA. Conditions: chain shown with the change; point at the highest antibody concentration, about 13.3 nM (read from x axis); VEGF captured on ELISA plate; parent: est. 0.66; read off a plot. On the technique in general: An ELISA detects its analyte on a solid surface through an enzyme-linked reagent.

Drawing on article PMC2816707, this text covers response for 2 molecules.

B1: rabbit IgG Fc-hVEGF (human VEGF165) fusion protein, wild type, P15692-4 G88A (protein)
chain: APMAEGGGQNHHEVVKFMDVYQRSYCHPIETLVDIFQEYPDEIEYIFKPSCVPLMRCGGCCNDEGLECVPTEESNITMQIMRIKPHQAQHIGEMSFLQHNKCECRPKKDRARQENPCGPCSERRKHLFVQDPQTCKCSCKNTDSRCKARQLELNERTCRCDKPRR
In the case of B1, the response was 0.73 OD (405nm).

B2: rabbit IgG Fc-hVEGF (human VEGF165) fusion protein, wild type, P15692-4 I46A (protein)
chain: APMAEGGGQNHHEVVKFMDVYQRSYCHPIETLVDIFQEYPDEIEYAFKPSCVPLMRCGGCCNDEGLECVPTEESNITMQIMRIKPHQGQHIGEMSFLQHNKCECRPKKDRARQENPCGPCSERRKHLFVQDPQTCKCSCKNTDSRCKARQLELNERTCRCDKPRR
For the molecule B2, the response is 0.7 OD (405nm).
